From patent publication US20190338038A1 (CELLERANT THERAPEUTICS, published 2019) come the findings set out here.

One may read the EC50 (read off the curve) as the midpoint of the concentration-response curve. A low value points to greater potency. The koff is the rate constant with which the complex falls apart. Low values mean a long-lived complex, high ones a short-lived complex. The term kon denotes the second-order rate constant of association. A lower kon goes with slower complex formation. A word on the Kd: it is a measure of binding affinity in units of concentration. Higher therefore signals a looser complex.

Assay [1] has as its target T1, human interleukin 1 receptor accessory protein, membrane-bound form on cells (human, UniProt Q9NPH3 21-570).
T1 construct: On IL1-RAP-transfected 293 cells, AML cell lines (EOL-1, HNT-34, OCI-AML2, OCI-AML3), primary AML cells and HEK-Blue IL-1β cells; also called IL1-RAP; receptor IL1-RAP
T1 sequence: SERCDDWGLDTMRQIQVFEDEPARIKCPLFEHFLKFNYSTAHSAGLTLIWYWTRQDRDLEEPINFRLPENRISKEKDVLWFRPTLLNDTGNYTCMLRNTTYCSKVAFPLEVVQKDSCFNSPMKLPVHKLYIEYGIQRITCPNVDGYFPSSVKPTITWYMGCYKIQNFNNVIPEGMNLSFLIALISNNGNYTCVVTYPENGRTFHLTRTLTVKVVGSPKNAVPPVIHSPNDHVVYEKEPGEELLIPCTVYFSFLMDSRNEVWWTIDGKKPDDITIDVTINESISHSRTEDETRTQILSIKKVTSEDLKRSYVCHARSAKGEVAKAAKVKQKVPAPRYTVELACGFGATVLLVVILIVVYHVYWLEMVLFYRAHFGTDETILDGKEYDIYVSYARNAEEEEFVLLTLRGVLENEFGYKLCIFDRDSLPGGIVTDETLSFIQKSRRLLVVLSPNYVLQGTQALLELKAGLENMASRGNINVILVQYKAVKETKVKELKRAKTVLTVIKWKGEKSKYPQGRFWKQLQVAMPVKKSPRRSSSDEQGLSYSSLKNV
Description: FACS titration on EOL-1 cells.

The target of assay [2] is T1, human interleukin 1 receptor accessory …. Put plainly: FACS on EOL-1 cells, FITC; antibody concentration not given.
In assay [3] the target is T2, IL1-RAP (antigen of the kinetic measurements of Tables 5A and 5B) (human, UniProt Q9NPH3 21-359, limits assumed).
T2 sequence: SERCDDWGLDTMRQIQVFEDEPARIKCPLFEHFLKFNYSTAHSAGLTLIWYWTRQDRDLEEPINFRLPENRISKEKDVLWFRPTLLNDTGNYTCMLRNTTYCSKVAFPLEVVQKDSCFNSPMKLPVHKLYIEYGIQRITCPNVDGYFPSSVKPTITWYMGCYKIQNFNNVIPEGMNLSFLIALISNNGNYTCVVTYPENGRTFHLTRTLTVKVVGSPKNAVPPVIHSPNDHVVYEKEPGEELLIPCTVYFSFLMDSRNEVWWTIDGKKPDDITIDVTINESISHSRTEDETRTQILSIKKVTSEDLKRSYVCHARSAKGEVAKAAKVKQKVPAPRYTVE
Put plainly: kinetics, Table 5B; method and antigen form not stated.

The target of assay [4] is T2, IL1-RAP (antigen of the kinetic …). Put plainly: kinetics, Table 5A; method and antigen form not stated; Table 5A.
For assay [5] the target is unchanged. Description: kinetics, Table 5A; method and antigen form not stated.
The target is the same in assay [6]. Put plainly: kinetics, Table 5B; method and antigen form not stated; Table 5B.
In assay [7] the target is T1, human interleukin 1 receptor accessory …. Put plainly: FACS titration on HNT-34 cells.
Assay [8] shares this target. Put plainly: FACS titration on IL1-RAP transfected 293 cells.
Assay [9] shares this target. Description: FACS titration on EOL-1 cells. This is another data set of the same source.
Assay [10] addresses T3, soluble IL1-RAP form (isoform 2) (human, UniProt Q9NPH3 21-350).
T3 construct: Expressed in and purified from 293 cells; also called Q9NPH3-2; soluble form IL1RAP
T3 sequence: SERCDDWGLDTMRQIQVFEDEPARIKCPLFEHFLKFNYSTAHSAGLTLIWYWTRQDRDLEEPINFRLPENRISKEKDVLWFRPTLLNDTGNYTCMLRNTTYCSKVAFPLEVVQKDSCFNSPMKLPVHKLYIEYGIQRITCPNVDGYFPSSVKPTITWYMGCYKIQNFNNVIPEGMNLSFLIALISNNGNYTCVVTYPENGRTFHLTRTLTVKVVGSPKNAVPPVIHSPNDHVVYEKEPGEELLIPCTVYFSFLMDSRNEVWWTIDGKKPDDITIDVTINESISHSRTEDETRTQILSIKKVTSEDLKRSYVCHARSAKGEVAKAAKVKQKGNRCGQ
Description: sandwich ELISA: plate coated with goat anti-IL1RAP antibody, then soluble IL1-RAP, then 2H8. On the procedure:
(§1) The extracellular domain of IL1-RAP (Q9NPH3-4) and soluble IL1-RAP form (Q9NPH3-2) were expressed and purified from 293 cells. Sandwich ELISA was performed. The binding data shown in FIGS. 3A and 3B supports the conclusion that clone 2H8 binds to membrane-bound IL1-RAP better compared to soluble IL1-RAP form.
A general note: ELISA stands for enzyme-linked immunosorbent assay.

Assay [11] has as its target T4, his-tagged extracellular domain (ECD) of IL1-RAP (human, UniProt Q9NPH3 21-367).
T4 construct: also called ECD IL1-RAP; IL1-RAP-His fusion protein
T4 sequence: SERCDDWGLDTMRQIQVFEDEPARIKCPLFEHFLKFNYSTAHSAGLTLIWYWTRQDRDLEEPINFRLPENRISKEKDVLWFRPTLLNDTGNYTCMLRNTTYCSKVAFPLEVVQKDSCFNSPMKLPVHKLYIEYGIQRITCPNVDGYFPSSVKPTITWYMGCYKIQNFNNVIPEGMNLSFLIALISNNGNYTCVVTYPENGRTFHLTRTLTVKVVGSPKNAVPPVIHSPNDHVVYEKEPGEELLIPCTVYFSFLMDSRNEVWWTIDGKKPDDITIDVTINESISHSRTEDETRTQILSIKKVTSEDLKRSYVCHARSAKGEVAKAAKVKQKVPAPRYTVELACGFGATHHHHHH
Description: sandwich ELISA: plate coated with goat anti-IL1RAP antibody, then extracellular domain of IL1-RAP, then 2H8. On the procedure:
as §1

B1: chimeric 54.9D7 (antibody, V domains shown)
VH: HVQLQQSGPELVRPGASVKLSCKASGYIFITYWMNWVKQRPGQGLEWVGQIFPASGTTYYNELFEGKATLTVDTSSNTAYMHLTSLTSEDSAVYYCARTDFYRYDGGYALDYWGQGTSLTVSS
VL: DIVLTQSPISLAVFLGQRATISCRASQSVSTSGYSSMHWYQQKAGQPPKLLIKYASDLESGVPVRFSGSGSGTDFILNIHPVEVEDIATYYCHHSWGIPMYTFGGGTKLEIKR
notes: Chimeric antibody; also called Chi54.9D7
Take B1: the “EC50 (read off the curve)” value in [1] is around 200 nM. Also, the MFI in assay [2] is 32.2. The koff in assay [3] and in assay [5] was below 1e-07 s⁻¹ in each case. Further, the kon in [3] is 158000 M⁻¹ s⁻¹; in [5] it was 143000 M⁻¹ s⁻¹. Besides, the Kd in assay [4] and in [6] was below 0.001 nM in each case.

B2: anti-IL1-RAP antibody clone 2H8 (antibody, V domains shown)
VH: QIQLVQSGPELKKPGETVKISCKASGYTFTDYSMHWVKQAPGKGLKWMGWINTETGEPTYADDFKGRFAFSLETSASTAYLQINNLKNEDTATYFCARYYGYFDYWGQGTTLTVSS
VL: DIVLTQSPASLAVSLGQRATISCRASESVDSYGNSFMHWYQQKPGQPPKLLIYRASNLESGIPARFSGSGSRTDFTLTINPVEADDVATYYCQQSNEDPWTFGGGTKLEIK
notes: Mouse monoclonal antibody; also called 2H8.3
Consider B2, for which the “EC50 (read off the curve)” value is around 0.5 µg/mL in assay [7]; around 0.9 µg/mL in assay [8]; around 1 µg/mL in [9]; around 1 µg/mL in assay [10]; around 0.6 µg/mL in assay [11].
